Experimental data reported in patent publication US20160145343A1.

Tests used:
[1] = target: Normal MUC1 on non-transformed MCF-10A cells and on normal tissue (human) (UniProt P15941); experiment: immunohistochemistry, colon tissue microarray
[2] = target: Normal MUC1 on non-transformed MCF-10A cells and on normal tissue (human) (UniProt P15941); experiment: immunohistochemistry, colon tissue microarray, normal samples
[3] = target: Normal MUC1 on non-transformed MCF-10A cells and on normal tissue (human) (UniProt P15941); experiment: flow cytometry, MCF10a cells, secondary antibody only
[4] = target: Normal MUC1 on non-transformed MCF-10A cells and on normal tissue (human) (UniProt P15941); experiment: flow cytometry, MCF10a cells
BSA = BSA (UniProt P02769); experiment: ELISA on coated BSA, antibody 0.01 mg/ml, mean of 3
Synthetic peptide (…)2 = experiment: ELISA on coated peptide, antibody 0.01 mg/ml, mean of 3
[5] = target: Synthetic peptide …; experiment: as above
[6] = target: SEQ ID NO: 346 glycopeptide with TF-antigen at Ser5; experiment: ELISA on coated glycopeptide, antibody 0.01 mg/ml, mean of 3
[7] = target: SEQ ID NO: 346 glycopeptide with TF-antigen at Thr16; experiment: as above
[8] = target: SEQ ID NO: 346 glycopeptide with TF-antigen at Thr4 and Thr9; experiment: as above
[9] = target: SEQ ID NO: 346 glycopeptide with TF-antigen at Thr4; experiment: as above
[10] = target: SEQ ID NO: 346 glycopeptide with TF-antigen at Thr9; experiment: as above
[11] = target: SEQ ID NO: 346 glycopeptide with Tn-antigen at Thr4, Thr9 and Thr16; experiment: as above

Synthetic peptide (…)2, sequence (peptide, as listed by the source): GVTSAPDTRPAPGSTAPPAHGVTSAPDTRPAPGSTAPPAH
BSA, sequence (P02769 25-607 limits assumed): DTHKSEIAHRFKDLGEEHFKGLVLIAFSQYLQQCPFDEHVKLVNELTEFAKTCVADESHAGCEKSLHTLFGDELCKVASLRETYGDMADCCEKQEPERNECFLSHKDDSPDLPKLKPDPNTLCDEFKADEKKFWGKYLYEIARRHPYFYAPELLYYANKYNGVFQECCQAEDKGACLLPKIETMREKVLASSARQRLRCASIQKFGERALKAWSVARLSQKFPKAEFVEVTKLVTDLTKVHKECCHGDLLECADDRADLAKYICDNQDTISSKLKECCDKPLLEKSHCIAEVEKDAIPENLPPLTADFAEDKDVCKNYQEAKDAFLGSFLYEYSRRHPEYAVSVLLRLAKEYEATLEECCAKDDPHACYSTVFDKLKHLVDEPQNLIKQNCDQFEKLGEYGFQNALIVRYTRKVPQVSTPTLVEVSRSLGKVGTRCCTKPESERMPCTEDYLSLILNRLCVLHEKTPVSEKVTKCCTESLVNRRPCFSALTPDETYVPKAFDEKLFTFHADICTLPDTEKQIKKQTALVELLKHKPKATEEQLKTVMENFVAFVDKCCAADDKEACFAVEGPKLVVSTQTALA

HMPV (BD Biosciences), mouse anti-MUC1 antibody
samples MUC1+ by staining (of 6 normal samples) [1]: 3 | MUC1+ samples stained (of 3 MUC1+ normal samples) [2]: 3

Hu-2nd. (APC-labeled secondary antibody only control for the human antibodies)
percentage of APC+ stained cells [3]: 0.25%

M-2nd. (APC-labeled secondary antibody only control for the mouse antibodies)
percentage of APC+ stained cells [3]: 0.6%

VU-3C6 (Abcam), mouse anti-MUC1 antibody
percentage of APC+ stained cells [4]: 99.2% | ELISA absorbance at 450 nm (BSA): 0.2 absorbance | ELISA absorbance at 450 nm (Synthetic peptide (…)2): 2.3 absorbance | ELISA absorbance at 450 nm [5]: 1.5 absorbance | ELISA absorbance at 450 nm [6]: 2 absorbance | ELISA absorbance at 450 nm [7]: 1.5 absorbance | ELISA absorbance at 450 nm [8]: 2.4 absorbance | ELISA absorbance at 450 nm [9]: 2 absorbance | ELISA absorbance at 450 nm [10]: 2.4 absorbance | ELISA absorbance at 450 nm [11]: 2.4 absorbance

VU-4H5 (Abnova), mouse anti-MUC1 antibody
percentage of APC+ stained cells [4]: 3.85% | ELISA absorbance at 450 nm (BSA): 0.1 absorbance | ELISA absorbance at 450 nm (Synthetic peptide (…)2): 2.5 absorbance | ELISA absorbance at 450 nm [5]: 1.9 absorbance | ELISA absorbance at 450 nm [6]: 1.8 absorbance | ELISA absorbance at 450 nm [7]: 1.9 absorbance | ELISA absorbance at 450 nm [8]: 0.1 absorbance | ELISA absorbance at 450 nm [9]: 1.8 absorbance | ELISA absorbance at 450 nm [10]: 0.1 absorbance | ELISA absorbance at 450 nm [11]: 0.1 absorbance
